This note sets out measurements from patent US20240124608A1 (Johns Hopkins, published 2024).

The target in assay [1] is TRBC1 polypeptide (form not stated, target of the affinity printed for scFv C1) (UniProt P01850 1-149, limits assumed). The assay is described as follows: not stated; column head 'Affinity' in the table of scFv sequences.
For assay [2], the target named is T1, TRBC2 (T cell receptor β chain constant region 2) on HPB-ALL cells (human, UniProt A0A5B9 1-178).
T1 construct: whole, on cells; This is the constant region of the TCR β chain carried by the cell's own rearranged TCR; also called TRBC2 polypeptide
T1 sequence (A0A5B9 whole entry): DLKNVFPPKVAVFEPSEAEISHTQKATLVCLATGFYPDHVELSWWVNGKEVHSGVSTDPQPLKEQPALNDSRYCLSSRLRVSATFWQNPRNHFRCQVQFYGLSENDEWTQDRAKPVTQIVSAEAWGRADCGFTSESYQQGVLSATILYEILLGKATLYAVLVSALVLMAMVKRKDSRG
Nature of the assay: flow cytometry on HPB-ALL cells (express TRBC2). (Flow cytometry measures light scatter and fluorescence of single cells or particles in a stream.)

Assay [3] concerns the target T2, TRBC1 (T cell receptor β chain constant region 1) on Jurkat cells and TRBC1^+ healthy human T cells (human, UniProt P01850 1-176).
T2 construct: whole, on cells; This is the constant region of the TCR β chain carried by the cell's own rearranged TCR; The rest of the TCR is not specified; also called TRBC1 polypeptide
Nature of the assay: flow cytometry on Jurkat cells and healthy human T cells.

In assay [4] the target is CD3 polypeptide (form not stated, target of the affinity printed for scFv UCHT1.v9) (UniProt P07766 23-126). The assay is described as follows: not stated; column head 'Affinity' in the table of scFv sequences.
CD3 polypeptide (form not stated, target of the affinity printed for scFv UCHT1.v9), sequence (P07766 23-126): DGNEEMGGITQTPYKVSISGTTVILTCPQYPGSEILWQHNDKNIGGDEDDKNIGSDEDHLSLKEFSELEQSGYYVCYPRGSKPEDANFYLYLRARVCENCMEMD

TRBC1 polypeptide (form not stated, target of the affinity printed for scFv C1), sequence (P01850 1-149 limits assumed): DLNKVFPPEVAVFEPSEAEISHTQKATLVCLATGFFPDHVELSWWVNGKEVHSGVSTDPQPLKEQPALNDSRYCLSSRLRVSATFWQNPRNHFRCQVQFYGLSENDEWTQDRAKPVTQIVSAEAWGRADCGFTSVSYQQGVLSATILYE
T2 sequence (P01850 whole entry): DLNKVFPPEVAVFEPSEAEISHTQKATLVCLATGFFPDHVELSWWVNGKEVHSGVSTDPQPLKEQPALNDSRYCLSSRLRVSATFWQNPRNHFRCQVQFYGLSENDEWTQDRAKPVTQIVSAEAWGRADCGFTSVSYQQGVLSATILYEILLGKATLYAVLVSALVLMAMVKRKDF

B1: anti-TRBC1 scFv C1 (Jovi-1) (scFv, V domains shown)
VH: EVRLQQSGPDLIKPGASVKMSCKASGYTFTGYVMHWVKQRPGQGLEWIGFINPYNDDIQSNERFRGKATLTSDKSSTTAYMELSSLTSEDSAVYYCARGAGYNFDGAYRFFDFWGQGTTLTVSS
VL: DVVMTQSPLSLPVSLGDQASISCRSSQRLVHSNGNTYLHWYLQKPGQSPKLLIYRVSNRFPGVPDRFSGSGSGTDFTLKISRVEAEDLGIYFCSQSTHVPYTFGGGTKLEIKR
notes: also called αTRBC1 scFv
For the molecule B1, the Kd in assay [1] was 0.4 nM.

B2: TRBC1-TRBC1 #4 bispecific antibody (bispecific antibody, V domains shown)
VH: EVRLQQSGPDLIKPGASVKMSCKASGYTFTGYVMHWVKQRPGQGLEWIGFINPYNDDIQSNERFRGKATLTSDKSSTTAYMELSSLTSEDSAVYYCARGAGYNFDGAYRFFDFWGQGTTLTVSS
VL: DVVMTQSPLSLPVSLGDQASISCRSSQRLVHSNGNTYLHWYLQKPGQSPKLLIYRVSNRFPGVPDRFSGSGSGTDFTLKISRVEAEDLGIYFCSQSTHVPYTFGGGTKLEIKR
notes: A single polypeptide made by linking two anti-TRBC1 scFvs, with G4S and (G4S)3 linkers and a poly-histidine tail; also called anti-C1 #4
With B2, in assay [2], the binding result is given as “no binding”.

B3: TRBC1-TRBC1 #3 bispecific antibody (bispecific antibody, V domains shown)
VH: EVRLQQSGPDLIKPGASVKMSCKASGYTFTGYVMHWVKQRPGQGLEWIGFINPYNDDIQSNERFRGKATLTSDKSSTTAYMELSSLTSEDSAVYYCARGAGYNFDGAYRFFDFWGQGTTLTVSS
VL: DVVMTQSPLSLPVSLGDQASISCRSSQRLVHSNGNTYLHWYLQKPGQSPKLLIYRVSNRFPGVPDRFSGSGSGTDFTLKISRVEAEDLGIYFCSQSTHVPYTFGGGTKLEIKR
notes: A single polypeptide made by linking two anti-TRBC1 scFvs, with G4S and (G4S)3 linkers and a poly-histidine tail; also called anti-C1 #3
As to B3, in assay [2], the binding result is “no binding”.

B4: TRBC1-CD3 bispecific antibody (bispecific antibody, V domains shown)
VL 1: DVVMTQSPLSLPVSLGDQASISCRSSQRLVHSNGNTYLHWYLQKPGQSPKLLIYRVSNRFPGVPDRFSGSGSGTDFTLKISRVEAEDLGIYFCSQSTHVPYTFGGGTKLEIKR
VH 1: EVRLQQSGPDLIKPGASVKMSCKASGYTFTGYVMHWVKQRPGQGLEWIGFINPYNDDIQSNERFRGKATLTSDKSSTTAYMELSSLTSEDSAVYYCARGAGYNFDGAYRFFDFWGQGTTLTVSS
VL 2: DIQMTQSPSSLSASVGDRVTITCRASQDIRNYLNWYQQKPGKAPKLLIYYTSRLESGVPSRFSGSGSGTDYTLTISSLQPEDFATYYCQQGNTLPWTFGQGTKVEIK
VH 2: EVQLVESGGGLVQPGGSLRLSCAASGYSFTGYTMNWVRQAPGKGLEWVALINPYKGVSTYNQKFKDRFTISVDKSKNTAYLQMNSLRAEDTAVYYCARSGYYGDSDWYFDVWGQGTLVTVSS
notes: It was nickel purified, so a His tag is implied; also called αC1-CD3; anti-C1-CD3
For B4, in assay [3], the binding result is reported as “binds”.

B5: anti-CD3 scFv UCHT1.v9 (scFv, V domains shown)
VH: EVQLVESGGGLVQPGGSLRLSCAASGYSFTGYTMNWVRQAPGKGLEWVALINPYKGVSTYNQKFKDRFTISVDKSKNTAYLQMNSLRAEDTAVYYCARSGYYGDSDWYFDVWGQGTLVTVSS
VL: DIQMTQSPSSLSASVGDRVTITCRASQDIRNYLNWYQQKPGKAPKLLIYYTSRLESGVPSRFSGSGSGTDYTLTISSLQPEDFATYYCQQGNTLPWTFGQGTKVEIK
notes: also called αCD3 scFv
B5 gave a Kd in assay [4] of 4.7 nM.

For orientation: Kd means a measure of binding affinity in units of concentration. A higher Kd goes with weaker binding.
